We go through 4 molecules from paper PMC10275869 (Nature Communications, 2023).

Assay [1] deals with T1, prefusion clamp2 stabilized NiV F (Nipah virus, strain  (Q9IH63 …, UniProt Q9IH63, stabilised)).
T1 construct: also called Nipah virus F
Kind of assay: ELISA. The settings on record: both partners purified.

Assay [2] deals with LayV F clamp2 (prefusion Langya virus fusion glycoprotein ectodomain stabilised with the clamp2 molecular … (Langya virus (GenBank UUV47205.1), stabilised, N-linked glycans at N65 and N459)). Kind of assay: ELISA. The settings on record: both partners purified.

B1: mAb66 (human IgG1) (antibody, V domains shown)
VH: ETGSGGGLVKPGGTLTLTCKASGFTLSSYWMCWVRQAPGKGLELIACLYTNGATTWYASWVNGRFAISRSTSRNTVDLNMTSLTAADTATYFCARGSGSGWSWFNIWGPGTLVTVSS
VL: TGVMTQTPASVEAAVGGTVTIKCQASQNIISSLAWYQQKPGQRPKLLIYYASTLASGVPSRFKGSGSGTQFTLTISDLECADAATYYCQSYYYSGITYGNAFGGGTEVVVK
In the case of B1, the binding result in assay [1] was “binds”; in assay [2] it was “no binding (tested: 50 μg/mL)”.

B2: 1F5 (human IgG1) (antibody, V domains shown)
VH: DVQLQESGPGLVKPSQSLSLTCSVTGYSITSDYYWNWIRQFPGNKLEWMGYVTYDGSNNYNPSLKNRISITRDSSKNQFFLKLNSVISEDTATYYCARFGSSYWAMDYWGQGTSLTVSS
VL: QIVLTQSPAIMSASLGEAITLTCSASSSVSYMHWYQQKSGTSPKLLIYSTSNLASGVPSRFSGSGSGTFYSLTISSVEAEDAADYYCHQWYSYPWTFGGGTKLEIK
Turning to B2, the binding result in assay [1] is recorded as “binds”; in assay [2], “no binding (tested: 50 μg/mL)”.

B3: 5B3 (human IgG1) (antibody, V domains shown)
VH: EVQLVESGGGLVKPGGSLKLSCAASGFTFSSYDMSWVRQTPEKRLEWVAMISSGGSYSYYPDSVKGRFTISRDNAKNTLYLQMSSLRSEDTAMYYCARQGDYAWFAYWGQGTLVTVSS
VL: DIQMTQSPASQSASLGESVTITCLASQTIGTWLAWYQQKPGKSPQLLIYAATSLADGVPSRFSGSGSGTKFSFKISSLQAEDFVSYYCQQFYSTPFTFGGGTKLEIK
On to B3, for which the binding result in assay [1] is listed as “binds”; in assay [2], “no binding (tested: 50 μg/mL)”.

B4: 12B2 (human IgG1) (antibody, V domains shown)
VH: QVQLKESGPGLVAPSQSLSITCTVSGFSLASYGVHWVRQPPGKGLEWLGVIWTGGSTNYNSALMSRLSINRDNSKSQVFLKLNSLQTDDTAIYYCARDRGYGYGGFAYWGQGTLVTVSA
VL: DIQMTQSPASLSASVGETVTITCRASENIYSYLAWYQHKQGKSPQLLVYNAKSLAEGVPSRFSGSGSGTQFSLKINSLQPEDFGSYYCQHHYGTPWTFGGGTKLEIK
On to B4, for which the binding result is “binds” in assay [1] and “no binding (tested: 50 μg/mL)” in assay [2].
